Data set [1] relates to CC(C)C[C@H](N)C(=O)Nc1ccc([N+](=O)[O-])cc1. Nature of the data set: purified protein. To be noted: 3 mM Co2+, pH 8.5, 40 °C (abstract: 45 °C optimum).
For data set [2], the target named is MesoAmp, aminopeptidase M29 (Aminopeptidase T) from Mesorhizobium SEMIA 3007 (Mesorhizobium SEMIA 3007). Description: SEC; Hiload16/600 Superdex 200, 100 mM Tris-HCl pH 8.0, 200 mM NaCl, 5% (w/v) glycerol, 0.5 mL/min; native mass estimated from a calibration curve of standard proteins and compared with the mass on SDS-PAGE.

The term Km denotes the substrate concentration at which the rate is half of its maximum. As a reminder, the kcat is the number of substrate molecules converted per active site and unit of time at saturation. Consider MesoAmp (Mesorhizobium sp. SEMIA 3007), for which, in data set [1], the Km was 236.4 ± 18.2 µM and the kcat came out at 712.1 ± 88.12 s⁻¹.
As usually defined, the stoichiometry N is the number of molecules, sites or subunits per partner or assembly. Take “MesoAmp, aminopeptidase M29 (Aminopeptidase T) from Mesorhizobium SEMIA 3007 (enzyme)”: in data set [2], the stoichiometry N was 2.

The values above are taken from article PMC5587760, “Halotolerant aminopeptidase M29 from Mesorhizobium SEMIA 3007 with biotechnological potential and its impact on biofilm synthesis” (Scientific Reports, 2017).
